Assay [1] deals with T1, recombinant gC1q-R (Homo sapiens, UniProt Q07021).
T1 construct: made in house
T1 sequence (Q07021 74-282): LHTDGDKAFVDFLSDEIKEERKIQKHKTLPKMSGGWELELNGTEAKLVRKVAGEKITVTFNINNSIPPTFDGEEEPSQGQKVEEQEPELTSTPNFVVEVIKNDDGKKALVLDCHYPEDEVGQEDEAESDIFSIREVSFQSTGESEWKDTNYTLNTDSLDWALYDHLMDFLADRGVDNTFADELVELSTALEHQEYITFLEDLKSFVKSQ
Description: competitive binding ELISA, biotinylated gC1q-R to coated HK peptide. The procedure:
FIG. 5. Panel A: Solution phase HKH20 inhibits binding of gC1q-R to microtiter bound HKH. ELISA wells were first coated with 50 μg/ml peptide HKH20 (SEQ ID NO:11). The wells were then incubated either with biotinylated gC1q-R (5 μg/ml) alone (lane 2) or in the presence of 10 μg/ml (lane 3) or 50 μg/ml (lane 4) HKH20. […] was coated with biotinylated gC1q-R (1 μg/ml) and detected with alkaline-phosphatase conjugated NeutrAvidin. The figure is a representative of two experiments done in duplicate. […] Panel B: HKH20 and histidine-rich fragments bind to gC1q-R. Binding of gC1q-R to HKH-20 (SEQ ID NO:11), HKH-10-1 (residues 479-488; SEQ ID NO:13), HKH-10-2 (residues 484-493; SEQ ID NO:14), and HKH-10-3 (residues 489-498; SEQ ID NO:15). The negative control is binding to BSA.
As discussed earlier, gC1q-R binds HK through a site on domain 5 that is located on the light chain of HK. […] This experiment was performed by competitive binding studies in which ELISA plate wells coated with 100 μg/ml HK peptide were incubated with biotinylated gC1q-R (1 μg/ml) in the presence or absence of increasing concentrations of peptide as a solution phase competitor. […] (FIG. 5B)

In assay [2] the test system is endothelial cells. The settings on record: cited from earlier work.
For assay [3], the target named is T2, HK (Homo sapiens, UniProt P01042).
T2 sequence (P01042 19-644): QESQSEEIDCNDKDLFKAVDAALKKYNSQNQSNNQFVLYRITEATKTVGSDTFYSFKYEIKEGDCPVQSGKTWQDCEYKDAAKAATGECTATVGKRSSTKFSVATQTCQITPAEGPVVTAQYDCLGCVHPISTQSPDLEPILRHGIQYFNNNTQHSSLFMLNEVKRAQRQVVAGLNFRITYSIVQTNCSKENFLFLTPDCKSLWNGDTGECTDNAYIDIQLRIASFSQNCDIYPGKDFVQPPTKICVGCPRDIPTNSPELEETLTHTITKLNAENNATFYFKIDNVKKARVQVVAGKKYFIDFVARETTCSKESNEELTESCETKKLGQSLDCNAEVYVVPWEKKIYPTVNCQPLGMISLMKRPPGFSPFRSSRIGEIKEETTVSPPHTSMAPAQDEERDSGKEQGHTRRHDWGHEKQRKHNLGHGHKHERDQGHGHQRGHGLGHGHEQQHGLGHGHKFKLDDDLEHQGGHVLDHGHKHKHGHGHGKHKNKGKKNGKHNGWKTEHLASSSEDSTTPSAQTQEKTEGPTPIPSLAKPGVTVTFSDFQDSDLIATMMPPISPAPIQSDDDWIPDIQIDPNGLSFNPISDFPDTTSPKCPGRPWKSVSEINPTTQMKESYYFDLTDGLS
The experiment in a line: solid phase ELISA, gC1q-R peptides supporting HK binding. The text has this:
By peptide mapping and antibody inhibition studies, we have previously identified a binding site for HK in a gC1q-R domain contained within residues 204-218. […] Thus a possible binding site(s) elsewhere in the molecule was sought. Several peptides were synthesized that correspond with the gC1q-R domains of very high negative charge and, which based on their location in the crystal structure on the solution-face, are hypothesized to interact with solution-phase ligands. […] HK was bound to wells coated with peptide 190-202 and was detected by a monoclonal antibody to HK. […] These antibodies have now been isotyped to be IgG1k.
A general note: An ELISA detects its analyte on a solid surface through an enzyme-linked reagent.

In assay [4] the target is HUVECs. The settings on record: zinc-dependent; read-out: Kd of binding to HUVECs; cited from earlier work.

Results on 3 molecules are retold here after patent publication US8883153B2, “Methods for preventing and treating angioedema” (The Research for The State University of New York, priority 2009, dated 2014).

A word on the Kd: it is the concentration at which binding is half-saturated.

For “HKHGHGHGKHKNKGKKNGKH (listed as Homo sapiens) [HKH20, HK 479-498, domain 5]”, the “inhibition of gC1q-R binding to coated HK peptide by solution phase peptide” value in assay [1] (50 μg/ml HKH20) is reported as “totally inhibited”. The “binding of gC1q-R to the peptide” value in assay [1] (ELISA wells coated with peptide) is recorded as “bound strongly”. The “inhibition of the interaction of HK with intact endothelial cells” value in assay [2] is recorded as “inhibit”.

Consider “EDEVGQEDEAESD (listed as Homo sapiens) [peptide 190-202, gC1q-R 190-202]”, for which the “capture of HK from diluted plasma on peptide-coated wells” value in assay [3] (plasma 1:10 in TBS, detected by monoclonal antibody to HK) was “HK was bound”. Moreover, the “ability to support HK binding” value in assay [3] (solid phase ELISA) is listed as “strongly supported binding of HK”.

B1: HK: high molecular weight kininogen, 115 kDa non-enzymatic plasma glycoprotein (protein, UniProt P01042 19-644, looked up)
Kininogen-1: QESQSEEIDCNDKDLFKAVDAALKKYNSQNQSNNQFVLYRITEATKTVGSDTFYSFKYEIKEGDCPVQSGKTWQDCEYKDAAKAATGECTATVGKRSSTKFSVATQTCQITPAEGPVVTAQYDCLGCVHPISTQSPDLEPILRHGIQYFNNNTQHSSLFMLNEVKRAQRQVVAGLNFRITYSIVQTNCSKENFLFLTPDCKSLWNGDTGECTDNAYIDIQLRIASFSQNCDIYPGKDFVQPPTKICVGCPRDIPTNSPELEETLTHTITKLNAENNATFYFKIDNVKKARVQVVAGKKYFIDFVARETTCSKESNEELTESCETKKLGQSLDCNAEVYVVPWEKKIYPTVNCQPLGMISLMKRPPGFSPFRSSRIGEIKEETTVSPPHTSMAPAQDEERDSGKEQGHTRRHDWGHEKQRKHNLGHGHKHERDQGHGHQRGHGLGHGHEQQHGLGHGHKFKLDDDLEHQGGHVLDHGHKHKHGHGHGKHKNKGKKNGKHNGWKTEHLASSSEDSTTPSAQTQEKTEGPTPIPSLAKPGVTVTFSDFQDSDLIATMMPPISPAPIQSDDDWIPDIQIDPNGLSFNPISDFPDTTSPKCPGRPWKSVSEINPTTQMKESYYFDLTDGLS
Consider B1, for which the Kd in assay [4] was 40 to 50 nM.
